# Reference: PMC10397247
# T1: O2-bN
# T1 chain: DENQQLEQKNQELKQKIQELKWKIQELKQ
# T2: O3-bN
# T2 chain: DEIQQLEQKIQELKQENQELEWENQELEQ
# T3: O4-bN
# T3 chain: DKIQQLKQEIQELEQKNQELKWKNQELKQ
# T4: O5-bN
# T4 chain: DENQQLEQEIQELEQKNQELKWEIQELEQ
# T5: O6-bN
# T5 chain: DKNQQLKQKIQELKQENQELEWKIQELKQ
# T6: O7-bN
# T6 chain: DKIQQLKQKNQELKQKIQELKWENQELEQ
# T7: O8-bN
# T7 chain: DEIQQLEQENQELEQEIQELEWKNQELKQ
# T8: O9-bN
# T8 chain: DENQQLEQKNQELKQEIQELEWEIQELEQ
# T9: 4H2702-bN
# T9 chain: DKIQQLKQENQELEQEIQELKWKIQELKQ
# T10: 4H3010-bN
# T10 chain: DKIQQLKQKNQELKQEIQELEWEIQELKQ
# T11: 4H3112-bN
# T11 chain: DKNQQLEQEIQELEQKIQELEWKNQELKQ
# T12: 4H3427-bN
# T12 chain: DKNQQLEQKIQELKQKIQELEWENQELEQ
# T13: 4H346-bN
# T13 chain: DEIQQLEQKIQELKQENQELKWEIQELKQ
# T14: 4H3926-bN
# T14 chain: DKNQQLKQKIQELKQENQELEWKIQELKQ
# T15: 4H4073-bN
# T15 chain: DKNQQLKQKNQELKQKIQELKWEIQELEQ
# T16: 4H457-bN
# T16 chain: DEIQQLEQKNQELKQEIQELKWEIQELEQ
# T17: 4H575-bN
# T17 chain: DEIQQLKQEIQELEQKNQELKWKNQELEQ
# T18: 4H683-bN
# T18 chain: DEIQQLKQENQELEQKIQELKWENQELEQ
# T19: 4H754-bN
# T19 chain: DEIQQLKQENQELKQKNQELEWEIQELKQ
# T20: 4H780-bN
# T20 chain: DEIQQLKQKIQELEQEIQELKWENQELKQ
# T21: 4H797-bN
# T21 chain: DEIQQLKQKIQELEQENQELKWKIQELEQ
# T22: 4H855-bN
# T22 chain: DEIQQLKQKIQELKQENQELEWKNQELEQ
# T23: 4H918-bN
# T23 chain: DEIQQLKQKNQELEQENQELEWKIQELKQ
# T24: 4H953-bN
# T24 chain: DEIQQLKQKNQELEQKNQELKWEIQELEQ
# T25: 4H968-bN
# T25 chain: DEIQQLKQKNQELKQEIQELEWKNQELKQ
# T26: 4H2687-AA
# T26 chain: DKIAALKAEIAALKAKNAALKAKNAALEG
# T27: 4H2705-AA
# T27 chain: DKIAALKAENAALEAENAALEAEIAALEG
# T28: 4H2758-AA
# T28 chain: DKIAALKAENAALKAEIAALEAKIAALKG
# T29: 4H278-AA
# T29 chain: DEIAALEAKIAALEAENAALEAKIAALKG
# T30: 4H2873-AA
# T30 chain: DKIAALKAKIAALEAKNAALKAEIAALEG
# T31: 4H2985-AA
# T31 chain: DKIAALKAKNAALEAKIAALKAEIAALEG
# T32: 4H3134-AA
# T32 chain: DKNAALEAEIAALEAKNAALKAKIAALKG
# T33: 4H3409-AA
# T33 chain: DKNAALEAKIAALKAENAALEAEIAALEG
# T34: 4H3625-AA
# T34 chain: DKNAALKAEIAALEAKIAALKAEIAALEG
# T35: 4H390-AA
# T35 chain: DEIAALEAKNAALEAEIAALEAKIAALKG
# T36: 4H3940-AA
# T36 chain: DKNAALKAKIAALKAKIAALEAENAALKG
# T37: 4H510-AA
# T37 chain: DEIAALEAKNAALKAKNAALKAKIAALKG
# T38: 4H775-AA
# T38 chain: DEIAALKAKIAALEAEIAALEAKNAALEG
# T39: 4H816-AA
# T39 chain: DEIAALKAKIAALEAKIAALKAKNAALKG
# T40: 4H87-AA
# T40 chain: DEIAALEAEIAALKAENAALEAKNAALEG
# Assays:
# O2-bN = molecular target: T1, O2-bN; test: two-hybrid library CCNG1;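 also: natural log of median RNA to DNA barcode read ratio; higher means stronger binding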
# O3-bN = molecular target: T2, O3-bN; test: two-hybrid library CCNG1;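 also: natural log of median RNA to DNA barcode read ratio; higher means stronger binding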
# O4-bN = molecular target: T3, O4-bN; test: two-hybrid library CCNG1;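 also: natural log of median RNA to DNA barcode read ratio; higher means stronger binding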
# O5-bN = molecular target: T4, O5-bN; test: two-hybrid library CCNG1;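 also: natural log of median RNA to DNA barcode read ratio; higher means stronger binding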
# O6-bN = molecular target: T5, O6-bN; test: two-hybrid library CCNG1;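 also: natural log of median RNA to DNA barcode read ratio; higher means stronger binding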
# O7-bN = molecular target: T6, O7-bN; test: two-hybrid library CCNG1;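 also: natural log of median RNA to DNA barcode read ratio; higher means stronger binding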
# O8-bN = molecular target: T7, O8-bN; test: two-hybrid library CCNG1
# O9-bN = molecular target: T8, O9-bN; test: two-hybrid library CCNG1
# 4H2702-bN = molecular target: T9, 4H2702-bN; test: two-hybrid library CCNG1
# 4H3010-bN = molecular target: T10, 4H3010-bN; test: two-hybrid library CCNG1
# 4H3112-bN = molecular target: T11, 4H3112-bN; test: two-hybrid library CCNG1
# 4H3427-bN = molecular target: T12, 4H3427-bN; test: two-hybrid library CCNG1
# 4H346-bN = molecular target: T13, 4H346-bN; test: two-hybrid library CCNG1
# 4H3926-bN = molecular target: T14, 4H3926-bN; test: two-hybrid library CCNG1
# 4H4073-bN = molecular target: T15, 4H4073-bN; test: two-hybrid library CCNG1
# 4H457-bN = molecular target: T16, 4H457-bN; test: two-hybrid library CCNG1
# 4H575-bN = molecular target: T17, 4H575-bN; test: two-hybrid library CCNG1
# 4H683-bN = molecular target: T18, 4H683-bN; test: two-hybrid library CCNG1
# 4H754-bN = molecular target: T19, 4H754-bN; test: two-hybrid library CCNG1
# 4H780-bN = molecular target: T20, 4H780-bN; test: two-hybrid library CCNG1
# 4H797-bN = molecular target: T21, 4H797-bN; test: two-hybrid library CCNG1
# 4H855-bN = molecular target: T22, 4H855-bN; test: two-hybrid library CCNG1
# 4H918-bN = molecular target: T23, 4H918-bN; test: two-hybrid library CCNG1
# 4H953-bN = molecular target: T24, 4H953-bN; test: two-hybrid library CCNG1
# 4H968-bN = molecular target: T25, 4H968-bN; test: two-hybrid library CCNG1
# 4H2687-AA = molecular target: T26, 4H2687-AA; test: two-hybrid library CCmax
# 4H2705-AA = molecular target: T27, 4H2705-AA; test: two-hybrid library CCmax; details: mean of both orientations
# 4H2758-AA = molecular target: T28, 4H2758-AA; test: two-hybrid library CCmax; details: mean of both orientations
# 4H278-AA = molecular target: T29, 4H278-AA; test: two-hybrid library CCmax; details: mean of both orientations
# 4H2873-AA = molecular target: T30, 4H2873-AA; test: two-hybrid library CCmax; details: mean of both orientations
# 4H2985-AA = molecular target: T31, 4H2985-AA; test: two-hybrid library CCmax; details: mean of both orientations
# 4H3134-AA = molecular target: T32, 4H3134-AA; test: two-hybrid library CCmax; details: mean of both orientations
# 4H3409-AA = molecular target: T33, 4H3409-AA; test: two-hybrid library CCmax; details: mean of both orientations
# 4H3625-AA = molecular target: T34, 4H3625-AA; test: two-hybrid library CCmax; details: mean of both orientations
# 4H390-AA = molecular target: T35, 4H390-AA; test: two-hybrid library CCmax; details: mean of both orientations
# 4H3940-AA = molecular target: T36, 4H3940-AA; test: two-hybrid library CCmax; details: mean of both orientations
# 4H510-AA = molecular target: T37, 4H510-AA; test: two-hybrid library CCmax; details: mean of both orientations
# 4H775-AA = molecular target: T38, 4H775-AA; test: two-hybrid library CCmax; details: mean of both orientations
# 4H816-AA = molecular target: T39, 4H816-AA; test: two-hybrid library CCmax; details: mean of both orientations
# 4H87-AA = molecular target: T40, 4H87-AA; test: two-hybrid library CCmax; details: mean of both orientations
binder,measurement,setting,value
DENQQLEQKNQELKQKIQELKWKIQELKQ [O2-bN],interaction score,O2-bN,-0.646
same,interaction score,O3-bN,-1.2
same,interaction score,O4-bN,-1.97
same,interaction score,O5-bN,-0.76
same,interaction score,O6-bN,-1.5
same,interaction score,O7-bN,-0.634
same,interaction score,O8-bN,0.817
same,interaction score,O9-bN,0.719
DKIQQLKQENQELEQEIQELKWKIQELKQ [4H2702-bN],interaction score,4H2702-bN,1.44
same,interaction score,4H3010-bN,2.05
same,interaction score,4H3112-bN,-0.298
same,interaction score,4H3427-bN,-0.588
same,interaction score,4H346-bN,-0.668
same,interaction score,4H3926-bN,0.223
same,interaction score,4H4073-bN,2.14
same,interaction score,4H457-bN,1.25
same,interaction score,4H575-bN,-0.212
same,interaction score,4H683-bN,0.0387
same,interaction score,4H754-bN,-1.18
same,interaction score,4H780-bN,-0.44
same,interaction score,4H797-bN,0.189
same,interaction score,4H855-bN,-1.49
same,interaction score,4H918-bN,-0.128
same,interaction score,4H953-bN,-0.0124
same,interaction score,4H968-bN,1.31
DKIAALKAEIAALKAKNAALKAKNAALEG [4H2687-AA],interaction score,4H2687-AA,-0.386
same,interaction score,4H2705-AA,-1.7
same,interaction score,4H2758-AA,-1.78
same,interaction score,4H278-AA,1.88
same,interaction score,4H2873-AA,-1.74
same,interaction score,4H2985-AA,-1.59
same,interaction score,4H3134-AA,-1.43
same,interaction score,4H3409-AA,-0.818
same,interaction score,4H3625-AA,-0.539
same,interaction score,4H390-AA,-1.43
same,interaction score,4H3940-AA,-1.7
same,interaction score,4H510-AA,-1.76
same,interaction score,4H775-AA,-0.777
same,interaction score,4H816-AA,-1.46
same,interaction score,4H87-AA,1.53
